Source: patent US20110311550A1
pEC50, pIC50: −log10 of the molar value. Read-outs that look alike come from different tables or passages of the source.

Tests used:
[1] = biological target: HCV E1E2 complex, isolate H77 (genotype 1a) (hepatitis C virus genotype 1a, isolate H77) (UniProt P27958); assay: ELISA, mAb with E1E2 (H77), then CD81-LEL plate
[2] = biological target: HCV E1E2 complex, isolate HCV-1 (genotype 1a), vaccinia-expressed (hepatitis C virus genotype 1a, isolate HCV-1) (UniProt P26664); assay: apparent affinity: half-maximal binding, ELISA on lectin-captured E1E2
[3] = biological target: HCV E1E2 complex, isolate H77 (genotype 1a) (hepatitis C virus genotype 1a, isolate H77) (UniProt P27958); assay: as above
[4] = biological target: HCV E1E2 complex, isolate H77 (genotype 1a) (hepatitis C virus genotype 1a, isolate H77) (UniProt P27958)
[5] = biological target: E1E2 complex of HCV isolate H77 (genotype 1a), wild type (HCV isolate H77) (UniProt P27958); assay: competition ELISA on H77 E1E2; competitor m39 (Fab N3)
[6] = biological target: E1E2 complex of HCV isolate H77 (genotype 1a), wild type (HCV isolate H77) (UniProt P27958); assay: competition ELISA on H77 E1E2; competitor m46 (Fab P4)
[7] = biological target: E1E2 complex of HCV isolate H77 (genotype 1a), wild type (HCV isolate H77) (UniProt P27958); assay: competition ELISA on H77 E1E2; competitor m45 (Fab P3)
[8] = biological target: HCV E1E2 complex, isolate H77 (genotype 1a) (hepatitis C virus genotype 1a, isolate H77) (UniProt P27958); assay: competition ELISA on lectin-captured H77 E1E2; competitor: AR1B (in the Blocking Fab columns)
[9] = biological target: E1E2 complex of HCV isolate H77 (genotype 1a), wild type (HCV isolate H77) (UniProt P27958); assay: competition ELISA on H77 E1E2; competitor m40 (Fab N4)
[10] = biological target: E1E2 complex of HCV isolate H77 (genotype 1a), wild type (HCV isolate H77) (UniProt P27958); assay: competition ELISA on H77 E1E2; competitor m44 (Fab P2)
[11] = biological target: HCV E1E2 complex, isolate H77 (genotype 1a) (hepatitis C virus genotype 1a, isolate H77) (UniProt P27958); assay: competition ELISA on lectin-captured H77 E1E2; competitor: Fab Q2
[12] = biological target: E1E2 complex of HCV isolate H77 (genotype 1a), wild type (HCV isolate H77) (UniProt P27958); assay: competition ELISA on H77 E1E2; competitor m41 (Fab O1)
[13] = biological target: E1E2 complex of HCV isolate H77 (genotype 1a), wild type (HCV isolate H77) (UniProt P27958); assay: competition ELISA on H77 E1E2; competitor m37 (Fab N1)
[14] = biological target: HCV E1E2 complex, isolate H77 (genotype 1a) (hepatitis C virus genotype 1a, isolate H77) (UniProt P27958); assay: competition ELISA on lectin-captured H77 E1E2; competitor: Fab P5
[15] = biological target: E1E2 complex of HCV isolate H77 (genotype 1a), wild type (HCV isolate H77) (UniProt P27958); assay: competition ELISA on H77 E1E2; competitor m42 (Fab P1)
[16] = biological target: HCV E1E2 complex, isolate H77 (genotype 1a) (hepatitis C virus genotype 1a, isolate H77) (UniProt P27958); assay: competition ELISA on lectin-captured H77 E1E2; competitor: Fab U1
[17] = biological target: E1E2 complex of HCV isolate H77 (genotype 1a), wild type (HCV isolate H77) (UniProt P27958); assay: competition ELISA on H77 E1E2; competitor m38 (Fab N2)
[18] = biological target: E1E2 complex of HCV isolate H77 (genotype 1a), wild type (HCV isolate H77) (UniProt P27958); assay: competition ELISA on H77 E1E2; competitor m43 (Fab P1a)
[19] = biological target: HCV E1E2 complex, isolate H77 (genotype 1a) (hepatitis C virus genotype 1a, isolate H77) (UniProt P27958); assay: competition ELISA on lectin-captured H77 E1E2; competitor: Fab T1
[20] = biological target: HCV E1E2 complex, isolate H77 (genotype 1a) (hepatitis C virus genotype 1a, isolate H77) (UniProt P27958); assay: competition ELISA on lectin-captured H77 E1E2; competitor: Fab V1
[21] = biological target: HCV E1E2 complex, isolate H77 (genotype 1a) (hepatitis C virus genotype 1a, isolate H77) (UniProt P27958); assay: competition ELISA on lectin-captured H77 E1E2; competitor: AR2A (in the Blocking Fab columns)
[22] = biological target: HCV E1E2 complex, isolate H77 (genotype 1a) (hepatitis C virus genotype 1a, isolate H77) (UniProt P27958); assay: competition ELISA on lectin-captured H77 E1E2; competitor: Fab R1
[23] = biological target: HCV E1E2 complex, isolate H77 (genotype 1a) (hepatitis C virus genotype 1a, isolate H77) (UniProt P27958); assay: competition ELISA on lectin-captured H77 E1E2; competitor: Fab P6
[24] = biological target: HCV E1E2 complex, isolate H77 (genotype 1a) (hepatitis C virus genotype 1a, isolate H77) (UniProt P27958); assay: competition ELISA on lectin-captured H77 E1E2; competitor: Fab Q1
[25] = biological target: HCV E1E2 complex, isolate H77 (genotype 1a) (hepatitis C virus genotype 1a, isolate H77) (UniProt P27958); assay: competition ELISA on lectin-captured H77 E1E2; competitor: Fab S1

MAb AR3D (IgG1 from Fab L4) (antibody)
pIC50 [1]: 9.00
pEC50 [2]: 8.62
pEC50 [3]: 8.40

MAb AR3D (antibody)
residual binding [4]: 58%

mouse MAb A4 (antibody)
% residual binding [5]: 96%
% residual binding [6]: 98%
% residual binding [7]: 100%
residual binding [8]: 85%
% residual binding [9]: 100%
% residual binding [10]: 102%
residual binding [11]: 98%
% residual binding [12]: 96%
% residual binding [13]: 100%
residual binding [14]: 100%
% residual binding [15]: 101%
residual binding [16]: 101%
% residual binding [17]: 101%
% residual binding [18]: 100%
residual binding [19]: 99%
residual binding [20]: 99%
residual binding [21]: 87%
residual binding [22]: 99%
residual binding [23]: 99%
residual binding [24]: 95%
residual binding [25]: 100%
